Reference: PMC7026483

Biological target: T1, GlxR-A131T A131T (Corynebacterium glutamicum WT (ATCC 13032?)) (UniProt Q79VI7)
T1 sequence: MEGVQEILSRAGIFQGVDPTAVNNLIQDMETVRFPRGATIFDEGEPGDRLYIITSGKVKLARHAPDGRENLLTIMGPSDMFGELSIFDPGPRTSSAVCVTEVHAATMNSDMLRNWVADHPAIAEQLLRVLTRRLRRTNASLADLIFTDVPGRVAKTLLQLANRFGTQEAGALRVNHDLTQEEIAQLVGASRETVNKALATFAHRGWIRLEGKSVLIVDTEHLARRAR
Assay: EMSA
Conditions: EMSA: 100 ng DNA, 200 nM protein, with or without 0.2 mM cAMP, 30 min, room temperature, 10% native PAGE; binding buffer as in Bussmann et al. 2009 (not …)

Sequence | binding
GGTGGAAATATCTTCGTGGGTTTCGTTTTTAGGGGCGTCAAATGTCTTTCAACTGCAACGATATGCCCGAATCCTCAGGTGGAATACCTAAAGTCTAGGCAATTGGTGTATGCCACGTCACAGACCATCAAC (double strand) [ctaCF promoter fragment] | binds
CTTCCTGGCGAAATGTCCGTCAAATTGTGAACCCCTTCACACCTTTGGTTAAAAGTCACTGCCCACAAGTGACTGAACCTGGCAGCGACCTCATGAATTGTTTGAAAAACATTTTTTTTGGGCATGAAAAGGGGATACAG (double strand) [ctaD promoter fragment] | binds
